Results: the DeepSol protein solubility set

Test: soluble on expression in E. coli; label from the status in PepcDB or PDB records

Sequence | soluble on expression in E. coli
MKYDLKYLSVPLPEEIQRVKEFGDFASADIAIDFWLTKELPQALKERLIIEKDVIKMMRMNEYPHSFAKADQMMRDTFQDYQTEELIRLKETGLVDWVYIDGEPYFQLRFLANLIKTNAAYVARLREAESNQLEILRKKELKENIEQMQKNGGRKVRTTIKATIQVKKEFERPGERVRVHLPLPKACQQQSEIEILATSPEATYIAAEDAPQRTLCFETILKENQTFTVEYCYVNRMVYQQLEENNVDKMQPSFDLEEQLPHIRFTPYLRNLADEIVGDESNPLKKARLIYDFVTTKIHYSFMREYFTISNISEYAATNLKGDCGVQAILFITLCRIAGIPAKWQSGLYVSTHYTGCHDWAQFYIKPYGWLFADLSFGGGAYRDGDRQRWNHYFGNLDVFRMVANSEIQADFQPAKMQLRADPIDNQRGEFEYENEGLPYACLIVSQERLSMEELPFD | not soluble
KKEEASSKSYRELIIEGLTALKERKGSSRPALKKFIKENYPIVGSASNFDLYFNNAIKKGVEAGDFEQPKGPAGAVKLAKKKSPEVKKEKEVS | soluble
MTGKKTLSIVGASGYAGGEFLRLALSHPYLEVKQVTSRRFAGEPVHFVHPNLRGRTNLKFVPPEKLEPADILVLALPHGVFAREFDRYSALAPVLVDLSADFRLKDPELYRRYYGEHPRPDLLGRFVYAVPELYREALKGADWIAGAGCNATATLLGLYPLLKAGVLKPTPIFVTLLISTSAGGAEASPASHHPERAGSIRVYKPTGHRHTAEVVENLPGRPEVHLTAIATDRVRGILMTAQCFVQDGWSERDVWQAYREAYAGEPFIRLVKQKKGVHRYPDPRFVQGTNYADIGFELEEDTGRLVVMTAIDNLVKGTAGHALQALNVRMGWPETLGLDFPGLHP | soluble
MGNQMSVPQRVEGQENEPEAETYQDNASALNGVPVVVSTHTVQHLEEVDLGISVKTDNVATSSPETTEISAVADANGKNLGKEAKPEAPAAKSRFFLMLSRPVPGRTGDQAADSSLGSVKLDVSSNKAPANKDPSESWTLPVAAGPGQDTDKTPGHAPAQDKALSAARDPTLLPPETGGAGGEAPSKPKDSSFFDKFFKLDKGQEKVPGDSQQEAKRAEHQDKVDEVPGLSGQSDDVPAGKDIVDGKEKEGQELGTADCSVPGDPEGLETAKDDSQAAAIAENNNSIMSFFKTLVSPNKAETKKDPEDTGAEKSPTTSADLKSDKANFTSQETQGAGKNSKGCNPSGHTQSVTTPEPAKEGTKEKSGPTSLPLGKLFWKKVVCESPVEIIKSKEVESALQTVDLNEGDAAPEPTEAKLKREESKPRTSLMAFLRQMSVKGDGGITHSEEINGKDSSCQTSDSTEKTITPPEPEPTGAPQKGKEGSSKDKKSAAEMNKQKSNKQEAKEPAQCTEQATVDTNSLQNGDKLQKRPEKRQQSLGGFFKGLGPKRMLDAQVQTDPVSIGPVGKSK | soluble
MTDTHAHLDFLEPEELAEAAAHLPKLRAVLTLGVDPGRWEKTLSLAQGNVYAAVGLHPTSAHLLSPRWRRPFRHYARSERVRAIGETGLDYYWTPETRAVQLKALDFQAALAEALGLPLVLHVRSKDGKAEEDLAAWLLLHRPKRAVLHAFSGHPALEAAGLEVGAYFSFAGPLTYRKNAALREAAARLPEDRLLVETDTPFLPPEPFRGKRNRPHYVRFTLEKLAEARGLPFAEAEALTDRNARVCFGWP | soluble
LPFDGIVTKNIVSELSDILTGARIEKIYQPEPDEIIINLRTKGQNLKLLLSANASYPRIHLTDVTKENPINPPVFCMLLRKHLSGGKITKIDFHDFERVVTIHIETIDELGDLTFKKLVVEIMGKHSNIILVNNENKIIDSIKHVDSDISRVREVMPARPYTLPPGQDKINPLELDIDLLFSKAKEQGDPRISKFFLNNIKGFSPLLCEEICHRADVDPRLPVSSLSEDTIQNLKKVLKEIISKIENSEFTPCIIWNGDDRQKAVDFHSLEIKQYNTVDFYPSISRVLDLFYTIKDTSERLAQKKADLAKILNNCIDRCNKKISIHMDTLREVAEREKFKLYGELITANIYCIPKNASKVSLLNYYSENGEYVEVPLDENLLPQENAQRYFKKYAKAKAAYIHATQQLEEARGELSYLESVLHSLENSNSFEDIDDIRQELAEQGYLPSKKKRPEKKNSKNFTPYTYKSTDGFYIYVGKNNVQNDFLTLKFASSNDIWLHTKNIPGSHVIIRKDRGEIPDSTLFQAAMLAAYHSKAKNSSHVEVDYTKVKNVKKPNGAKPGMVIYDNYKTIIVTPDENVVNNLRMENR | soluble
MNRAEKREFVTWLNEAFRKSGSVIVAHYSGLTVSQMNDLRSKMSEAGGAIKVAKNRLAKIALQGTESESIVDLFSGQTLIAYSEDPITAPKVAVDFAKTNDKFVILGGSMGATSLSVDAVKSLASLPSLNELRAKLVGMISTPATRIAQVVNAPAGQVVRVIGAYAQEGKAA | not soluble
MQFSLVIPVYNAGMMWPEVIRSIKSQTIQPECVIIIDSSSTDNTVAYATEAGFEVYHIDKSTFDHGGTRSMALERVNTEFVIYMTQDAILQNDEAFFYLLSAFNNEEVGAVYGRQLPHHDANPLATHARLHSYGEVGYVTSMKDDFPQGFRKAFMSNSFSGYRVSTLRQIGGFPAKLILGEDSYVAARMLSTGVSVGYIPQALARHSHNYSVGEEFKRYFDIGVFHKTQEWMLASLGKVEGEGVKFALGQICYLLKSNYYHYIPFSIASSGAKYLGYKLGKNYHRLNRTLCKKLSMYKSYWNSSVLEHHHHHH | soluble
MDYTEESAQIPEMAEKLGIPTSRKETKTLELPVSIDFRNWCSPIEDQMDLGSCTAHAGVGVVEYFERRAFGKHIDGSRFFVYKTTRNLMGVKGDTGAWLRNTMGALALCGVPPEKYFPYTSRKTPGPDGEPTFDDEPSSFVYSLADNFEALNYFCHDPQGMNLPPEDVILSVKKYLAAGIPSMFGFYGFPSFKDTDVKGGIPFPGPDERSIWGHAVVAVGYDDNMKIRNTLSNKETTGAFLIRNSWGTAWGDKGYGWLPYEYALNKFALDFWSLISMKWVETGNFGLELESSRSRARETLSRDMPLPHALEHHHHHH | not soluble
MLQIEKIVSNKGNDLSLRWNLLKKIDHFQCLTSLTRLNLNDNQIEKLENLETLVNLVFLDVSYNRITKIEGLSELINLEELHLVHNKIITIEGLETNTAMKYLEFGDNRIQKMENLSHLVNLERLFLGANQIRKIEGLDGMAQLKELSLPGNALQIIEGLDTLSGLKSISLAQNGIRKIDGLSGLTNLKSLDLNDNIIEKLENVEQFKGISSLMIRKNKLNCWQDVRQLKKLENLTVLTMEMNPLYSSDYTYRNRVKEILPDVKLLDGFPIFWVQGDPYQPIPEEFYEMGDVYVTSPTFVGHDTGSILAIDCHPSGKKFITCGQKARTSNGLVVVWNAEPVLDKKKASNENVPKLLFQVESQSQSNSCRWSPDGKRFAFGSDDSSVSVWEYVGLINSMGSITGGAQNVERYKECCVLRGHSMEVLTVEWSPNGKYLASGSIDYRIIIYNARKLPDRITVLNDIQLPVKGLSWDPIGKYLASLEGDKKLRFWATDSWQCVKSVTEPFESNIEETMLTRLDWSPDGKYLMTPAAVRSGKPLIKLIQRQTWKSDQFLAGHHKGTTCVRAMPRLIEANLKNGKRMQLTCAAVGSRDKSISIWVFPGTLKPLFVINNIFNHTVMDFAWCGRNLLACSQDGTVKVIHLSESVIGEMISNEAMSDLCYQIYSIRPPRYELTDKEEDESQDSFNLSDLSSSANNASFVTCPEDVLIKRKKLVAAQQSSDIQLTKSMEDNSKENESKNSEKTMMEERNKQIDVRKDGKRRIQPVFCGTTTADPMTSLSSEGKKTVAPPPAKRKALAPAVPAKKGEVDLEDSSDSDDDDEEEEEDMEISDIESVRNKKRKVPATTSQPMLALDLKKPALRPMEPKSLKTQEGTVLMEAPEQQPKLSQHVVDRKGMFVEIDNRWKHGGVETTQIKLIKKKQQTAENEDDMMDGERRVNHECLWMAVLGSPVIIVAANKHNVVLGCGDKCLRVYRTFCGTHIVSLRLDSLPVLIGVTEHAAYALTENGRLSTWNLKLGKAVVTRQPLFDCVEASTDNSLISADVSETGVPLIVFSNGSIFTFNVSLSCWIQAITTNVLGRLTSPISDAQLSCSNGTTNSAGPLVRLLKRMRKQATAPGVAPQVVKAVKESQLEQLLHCAEQLGNPQDYQTMLMLYVETLCEGGSEKKLKNILNDLSRSGAPMQVCGLRRSALYDDVTRMIKLKQPAIAARIVAGVAASTTTKSLF | not soluble
MGSDKIHHHHHHMQFGAKPLFENISVKFGGGNRYGLIGANGCGKSTFMKILCGDLDPSGGNVSLDVNERLGKLSQNQFGYEEFNLIDTVIMGHRELWKVKQERDRIYSLPEMSEEDGITVANLEMDFAEMDGYTAESRAGELLLGVGIGIDSHFGLMSEIAPGLKLRVLLAQALFSDPDVLLLDEPTNNLDIDTIRWLQDMLNQRSSTMVIISHDRYFLNSVCTHMADLDYGELRVYPGNYDEYMQAATQARERLLSDNAKKKAQISELQTFVARFSANASKAKQATSRARQIDKIKLDEVKASSRVNPFIRFEQEKKLFRNALVIENLTKGYDTPLFKDLNLIVEVGERIAVLGENGVGKTTLLRTLIHDIPQDAGTIQWSENANIGYYAQDHESDFANEMTLFEWMSQWRKPEDDDQSVRGILGRMLFGSDDIKKSVKVLSGGEKGRMLFGKLIMQKANILVLDEPTNHMDMESIESLNNALEMYEGTLIFVSHDRAFVSSLANRILEVTHTGVNDFRGTYDEFLASKGIEV | not soluble
MGSDKIHHHHHHMLITFNFEVHQPHRLNKEINQNGNTLWEKYVDTKLNKEVFNKVANKCYIPTNELILELIDEYDFKVNYSITGVFVEQALEFNDYVLDLFKDLVKTGNVELIAETYHHSLTSLFETEDEFIEDIEMHRKMYKEIFGFKAKVFRNTELIYNNRIAKIAKDLGFKAIFTEGIEKILGWRSPNYLYQSPDGMKILLRNYRLSDDIGFRFSARDWDQYPLTADKYAIWLASTPGEVINIYMDYETFGEHHWKETGIFEFLRYLPIEIAKHEHLEVVNVSEVVDRLEPRGEIYVHEFATISWADTERDVSAWLGNKMQRISFEKLKDIGKFIKENSNKLKKLNKFDEIYKMYKVLQTSDNLYYQSIKGLSDMSVHNYFSHFDTPFDAYASYLNILYDFEYYIKELLAKSEFDKNNRRKDGQKQYEKDDEVKKESLINTNIIVAKDDKTESIYIEDEEGKKNKRYERDEGFIIA | not soluble
MSTDIDCIVIGAGVVGLAIARALAAGGHEVLVAEAAEGIGTGTSSRNSEVIHAGIYYPADSLKARLCVRGKHLLYEYCAARGVPHQRLGKLIVATSDAEASQLDSIARRAGANGVDDLQHIDGAAARRLEPALHCTAALVSPSTGIVDSHALMLAYQGDAENDGAQLVFHTPLIAGRVRPEGGFELDFGGAEPMTLSCRVLINAAGLHAPGLARRIEGIPRDSIPPEYLCKGSYFTLAGRAPFSRLIYPVPQHAGLGVHLTLDLGGQAKFGPDTEWIATEDYTLDPRRADVFYAAVRSYWPALPDGALAPGYTGIRPKISGPHEPAADFAISGPASHGVAGLVNLYGIESPGLTASLAIAEETLARLAALEHHHHHH | soluble
FGIIRGLMMHVTLVEINVHDDKVEQFIDVFRQNHLGSIKEPGNLRFDVLQDPQVLTRFYIYEAYVDEQAVAFHKTTPHYKTCVEQLEPLMTGPRTKKVFMGL | not soluble
MQNDNAKPISISKQLVYDAFLRVKANRGSAGIDKVTLEDYEKNLRGNLYKLWNRMSSGSYFPPSVKLVEIPKSTGGKRPLGIPTVSDRVAQMAVVMLITPSIEPCFHEDSYAYRPHRSAHDAVGKARERCWKYAWVLDMDISKFFDTIDHELLLKALKRHTQEKWVLMYIERWLKVPYEKSDGSQVDRALGVPQGSVIGPVLANLFLHYTFDKWMEKNFPRVPFERYADDTICHCHSLKQAEYMQAMIQQRFECCRLRLNEEKTKIVYCKSSRQKECYPNVTFDFLGFTFQPRESVDKYGNRFTGFLPAISRKSMKRINETMRSWHLNRHSNLTLEHLASDINPIVRGWMTYYGKFYPTRLKWFMQTLNGRLARWVMCKFERYRHRFYPAQEWLARIAEKEGLIFYHWKCGALPRFTNKEKVSSQLIMVK | soluble
MKSAEQWIDELQLESHPEGGFYRETIREVLKDGRRAPFSSIYFLLTDDNISHFHRIDADEVWYYHAGDSLTIHMINPDGEYTTATLGTDIQNGDVLQYVVPKGTIFASSIEFSNTYSLVGCMCQPAFEFKQFELFKQSELITQYPHLKSVIEKYALK | soluble
